Experimental data reported in publication PMC3084833.

Tests used:
[1] = target: ΔCT-PxxP bestrophin-1 (human bestrophin-1 lacking the C-terminal proline-rich region between 462 and 575) (human) (UniProt O76090); test: co-IP; HEK-293 cells co-transfected with wild-type or ΔCTPxxP bestrophin-1 and β3- or His-tagged β4-subunits; IP with anti-bestrophin-1 antibody, blot anti-β3, or IP with anti-His antibody, blot anti-bestrophin-1; relative co-precipitation efficiency by densitometry of lysate, precipitate and non-bound fraction
[2] = target: calcium channel, voltage-dependent, β4-subunit, His6-tagged (rat, β4-pCDNA3) (Rattus norvegicus) (UniProt D4A055); test: as above

Row | co-precipitation efficiency [1] | co-precipitation efficiency [2] | Substance
1 | 4% |  | calcium channel, voltage-dependent, β3-subunit (rat, untagged, β3-pCMV) (from UniProt P54287 1-484) (natural protein)
2 |  | 4% | ΔCT-PxxP bestrophin-1 (human bestrophin-1 lacking the C-terminal proline-rich region between 462 and 575) (from UniProt O76090-1 1-585) (natural protein)
